Laboratory results from patent publication US20140087995A1 (published 2014).
Numbered stars: 1 amine (or outer) side, 2 acyl side, 3 side chain; on linkers, the order of the positions; unused ones are H or OH. Bridge positions count the residues as written; N and C are the ends. Side chains are listed from the residue outwards. Ends that are not written are not given here. * marks the point of attachment. C20 diacid = O=C(O)CCCCCCCCCCCCCCCCCCC(=O)*; C18 diacid = O=C(O)CCCCCCCCCCCCCCCCC(=O)*; C16 diacid = O=C(O)CCCCCCCCCCCCCCC(=O)*; γGlu = O=C(O)[C@H](CCC(=O)[*:2])N[*:1]; C14 diacid = O=C(O)CCCCCCCCCCCCC(=O)*

T1: human amylin 3(a) receptor (human calcitonin receptor co-expressed with RAMP-3) (human, UniProt P30988 25-474; O60896 24-148, limits assumed)
T1 sequence (looked up) 1: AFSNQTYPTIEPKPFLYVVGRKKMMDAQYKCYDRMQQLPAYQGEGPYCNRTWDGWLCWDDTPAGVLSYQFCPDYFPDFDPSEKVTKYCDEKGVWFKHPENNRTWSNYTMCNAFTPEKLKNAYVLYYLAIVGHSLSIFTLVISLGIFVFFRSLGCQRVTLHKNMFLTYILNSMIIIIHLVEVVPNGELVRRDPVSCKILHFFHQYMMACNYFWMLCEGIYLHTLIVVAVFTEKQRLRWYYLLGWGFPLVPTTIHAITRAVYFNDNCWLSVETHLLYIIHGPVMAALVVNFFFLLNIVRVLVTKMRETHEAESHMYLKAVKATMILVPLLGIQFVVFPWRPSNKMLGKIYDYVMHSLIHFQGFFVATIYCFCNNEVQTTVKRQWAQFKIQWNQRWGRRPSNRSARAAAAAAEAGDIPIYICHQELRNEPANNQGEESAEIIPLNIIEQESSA
T1 sequence (looked up) 2: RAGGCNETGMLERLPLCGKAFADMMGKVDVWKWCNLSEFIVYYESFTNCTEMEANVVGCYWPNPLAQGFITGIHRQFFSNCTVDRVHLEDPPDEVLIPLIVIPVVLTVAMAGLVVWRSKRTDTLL

T2: human calcitonin receptor (human, UniProt P30988 25-474)
T2 sequence (looked up): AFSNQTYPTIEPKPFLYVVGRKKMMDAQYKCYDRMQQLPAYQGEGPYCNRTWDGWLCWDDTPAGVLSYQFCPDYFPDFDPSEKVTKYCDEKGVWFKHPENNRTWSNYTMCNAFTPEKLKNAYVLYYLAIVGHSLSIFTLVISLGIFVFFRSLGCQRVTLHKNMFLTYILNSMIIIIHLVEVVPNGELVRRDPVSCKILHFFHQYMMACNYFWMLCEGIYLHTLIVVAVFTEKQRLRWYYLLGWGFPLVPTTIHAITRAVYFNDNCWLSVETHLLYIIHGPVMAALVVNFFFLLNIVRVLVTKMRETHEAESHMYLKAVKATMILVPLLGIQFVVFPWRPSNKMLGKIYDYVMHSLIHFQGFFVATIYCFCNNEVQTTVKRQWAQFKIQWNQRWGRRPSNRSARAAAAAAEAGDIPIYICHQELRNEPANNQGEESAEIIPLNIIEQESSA


Legend:
[1] = target: T1, human amylin 3(a) receptor (human …); test: cell-based or functional assay
[2] = target: T2, human calcitonin receptor; test: cell-based or functional assay

Binder	hAmylin-R funct. EC50 [1]	Ratio hCT/hAmylin funct. [2]	hCTR funct. EC50 [2]
K([γGlu-C14 diacid])CNTATCATQRLANFLRHSSPNFGAIPSSTNVGHNTY-NH2 (disulfide 2-7; N-terminus assumed; SMILES CC[C@H](C)[C@H](NC(=O)[C@H](C)NC(=O)CNC(=O)[C@H](Cc1ccccc1)NC(=O)[C@H](CC(N)=O)NC(=O)[C@@H]1CCCN1C(=O)[C@H](CO)NC(=O)[C@H](CO)NC(=O)[C@H](Cc1c[nH]cn1)NC(=O)[C@H](CCCNC(=N)N)NC(=O)[C@H](CC(C)C)NC(=O)[C@H](Cc1ccccc1)NC(=O)[C@H](CC(N)=O)NC(=O)[C@H](C)NC(=O)[C@H](CC(C)C)NC(=O)[C@H](CCCNC(=N)N)NC(=O)[C@H](CCC(N)=O)NC(=O)[C@@H](NC(=O)[C@H](C)NC(=O)[C@@H]1CSSC[C@H](NC(=O)[C@@H](N)CCCCNC(=O)CC[C@H](NC(=O)CCCCCCCCCCCCC(=O)O)C(=O)O)C(=O)N[C@@H](CC(N)=O)C(=O)N[C@@H]([C@@H](C)O)C(=O)N[C@@H](C)C(=O)N[C@@H]([C@@H](C)O)C(=O)N1)[C@@H](C)O)C(=O)N1CCC[C@H]1C(=O)N[C@@H](CO)C(=O)N[C@@H](CO)C(=O)N[C@H](C(=O)N[C@@H](CC(N)=O)C(=O)N[C@H](C(=O)NCC(=O)N[C@@H](Cc1c[nH]cn1)C(=O)N[C@@H](CC(N)=O)C(=O)N[C@H](C(=O)N[C@@H](Cc1ccc(O)cc1)C(N)=O)[C@@H](C)O)C(C)C)[C@@H](C)O) [N^ε1-[(4S)-4-carboxy-4-(13-carboxytridecanoylamino)butanoyl]-[Arg17,Pro21,Pro27,His34]-h-amylin]	0.028 nM	38.8	1.09 nM
K([γGlu-C16 diacid])CNTATCATQRLANFLRHSSPNFGAIPSSTNVGHNTY-NH2 (disulfide 2-7; N-terminus assumed; SMILES CC[C@H](C)[C@H](NC(=O)[C@H](C)NC(=O)CNC(=O)[C@H](Cc1ccccc1)NC(=O)[C@H](CC(N)=O)NC(=O)[C@@H]1CCCN1C(=O)[C@H](CO)NC(=O)[C@H](CO)NC(=O)[C@H](Cc1c[nH]cn1)NC(=O)[C@H](CCCNC(=N)N)NC(=O)[C@H](CC(C)C)NC(=O)[C@H](Cc1ccccc1)NC(=O)[C@H](CC(N)=O)NC(=O)[C@H](C)NC(=O)[C@H](CC(C)C)NC(=O)[C@H](CCCNC(=N)N)NC(=O)[C@H](CCC(N)=O)NC(=O)[C@@H](NC(=O)[C@H](C)NC(=O)[C@@H]1CSSC[C@H](NC(=O)[C@@H](N)CCCCNC(=O)CC[C@H](NC(=O)CCCCCCCCCCCCCCC(=O)O)C(=O)O)C(=O)N[C@@H](CC(N)=O)C(=O)N[C@@H]([C@@H](C)O)C(=O)N[C@@H](C)C(=O)N[C@@H]([C@@H](C)O)C(=O)N1)[C@@H](C)O)C(=O)N1CCC[C@H]1C(=O)N[C@@H](CO)C(=O)N[C@@H](CO)C(=O)N[C@H](C(=O)N[C@@H](CC(N)=O)C(=O)N[C@H](C(=O)NCC(=O)N[C@@H](Cc1c[nH]cn1)C(=O)N[C@@H](CC(N)=O)C(=O)N[C@H](C(=O)N[C@@H](Cc1ccc(O)cc1)C(N)=O)[C@@H](C)O)C(C)C)[C@@H](C)O) [N^ε1-[(4S)-4-carboxy-4-(15-carboxypentadecanoylamino)butanoyl]-[Arg17,Pro21,Pro27,His34]-h-amylin]	0.034 nM	65.1	2.21 nM
K([γGlu-C18 diacid])CNTATCATQRLANFLRHSSPNFGAIPSSTNVGHNTY-NH2 (disulfide 2-7; N-terminus assumed; SMILES CC[C@H](C)[C@H](NC(=O)[C@H](C)NC(=O)CNC(=O)[C@H](Cc1ccccc1)NC(=O)[C@H](CC(N)=O)NC(=O)[C@@H]1CCCN1C(=O)[C@H](CO)NC(=O)[C@H](CO)NC(=O)[C@H](Cc1c[nH]cn1)NC(=O)[C@H](CCCNC(=N)N)NC(=O)[C@H](CC(C)C)NC(=O)[C@H](Cc1ccccc1)NC(=O)[C@H](CC(N)=O)NC(=O)[C@H](C)NC(=O)[C@H](CC(C)C)NC(=O)[C@H](CCCNC(=N)N)NC(=O)[C@H](CCC(N)=O)NC(=O)[C@@H](NC(=O)[C@H](C)NC(=O)[C@@H]1CSSC[C@H](NC(=O)[C@@H](N)CCCCNC(=O)CC[C@H](NC(=O)CCCCCCCCCCCCCCCCC(=O)O)C(=O)O)C(=O)N[C@@H](CC(N)=O)C(=O)N[C@@H]([C@@H](C)O)C(=O)N[C@@H](C)C(=O)N[C@@H]([C@@H](C)O)C(=O)N1)[C@@H](C)O)C(=O)N1CCC[C@H]1C(=O)N[C@@H](CO)C(=O)N[C@@H](CO)C(=O)N[C@H](C(=O)N[C@@H](CC(N)=O)C(=O)N[C@H](C(=O)NCC(=O)N[C@@H](Cc1c[nH]cn1)C(=O)N[C@@H](CC(N)=O)C(=O)N[C@H](C(=O)N[C@@H](Cc1ccc(O)cc1)C(N)=O)[C@@H](C)O)C(C)C)[C@@H](C)O) [N^ε1-[(4S)-4-carboxy-4-(17-carboxyheptadecanoylamino)butanoyl]-[Arg17,Pro21,Pro27,His34]-h-amylin]	0.096 nM	60.9	5.85 nM
K([γGlu-C20 diacid])CNTATCATQRLAAFLRHSSPNFGAIPSSTNVGHNTY-NH2 (disulfide 2-7; N-terminus assumed; SMILES CC[C@H](C)[C@H](NC(=O)[C@H](C)NC(=O)CNC(=O)[C@H](Cc1ccccc1)NC(=O)[C@H](CC(N)=O)NC(=O)[C@@H]1CCCN1C(=O)[C@H](CO)NC(=O)[C@H](CO)NC(=O)[C@H](Cc1c[nH]cn1)NC(=O)[C@H](CCCNC(=N)N)NC(=O)[C@H](CC(C)C)NC(=O)[C@H](Cc1ccccc1)NC(=O)[C@H](C)NC(=O)[C@H](C)NC(=O)[C@H](CC(C)C)NC(=O)[C@H](CCCNC(=N)N)NC(=O)[C@H](CCC(N)=O)NC(=O)[C@@H](NC(=O)[C@H](C)NC(=O)[C@@H]1CSSC[C@H](NC(=O)[C@@H](N)CCCCNC(=O)CC[C@H](NC(=O)CCCCCCCCCCCCCCCCCCC(=O)O)C(=O)O)C(=O)N[C@@H](CC(N)=O)C(=O)N[C@@H]([C@@H](C)O)C(=O)N[C@@H](C)C(=O)N[C@@H]([C@@H](C)O)C(=O)N1)[C@@H](C)O)C(=O)N1CCC[C@H]1C(=O)N[C@@H](CO)C(=O)N[C@@H](CO)C(=O)N[C@H](C(=O)N[C@@H](CC(N)=O)C(=O)N[C@H](C(=O)NCC(=O)N[C@@H](Cc1c[nH]cn1)C(=O)N[C@@H](CC(N)=O)C(=O)N[C@H](C(=O)N[C@@H](Cc1ccc(O)cc1)C(N)=O)[C@@H](C)O)C(C)C)[C@@H](C)O, also called compound 93)	0.118 nM	9.7	1.15 nM

Continued, values first:

hAmylin-R funct. EC50 [1]	Ratio hCT/hAmylin funct. [2]	hCTR funct. EC50 [2]	Binder
0.07 nM	4.5	0.316 nM	K([γGlu-C20 diacid])CNTATCATQRLAAFLRHSSPNFGAIPSSTNVGPNTY-NH2 (disulfide 2-7; N-terminus assumed; SMILES CC[C@H](C)[C@H](NC(=O)[C@H](C)NC(=O)CNC(=O)[C@H](Cc1ccccc1)NC(=O)[C@H](CC(N)=O)NC(=O)[C@@H]1CCCN1C(=O)[C@H](CO)NC(=O)[C@H](CO)NC(=O)[C@H](Cc1c[nH]cn1)NC(=O)[C@H](CCCNC(=N)N)NC(=O)[C@H](CC(C)C)NC(=O)[C@H](Cc1ccccc1)NC(=O)[C@H](C)NC(=O)[C@H](C)NC(=O)[C@H](CC(C)C)NC(=O)[C@H](CCCNC(=N)N)NC(=O)[C@H](CCC(N)=O)NC(=O)[C@@H](NC(=O)[C@H](C)NC(=O)[C@@H]1CSSC[C@H](NC(=O)[C@@H](N)CCCCNC(=O)CC[C@H](NC(=O)CCCCCCCCCCCCCCCCCCC(=O)O)C(=O)O)C(=O)N[C@@H](CC(N)=O)C(=O)N[C@@H]([C@@H](C)O)C(=O)N[C@@H](C)C(=O)N[C@@H]([C@@H](C)O)C(=O)N1)[C@@H](C)O)C(=O)N1CCC[C@H]1C(=O)N[C@@H](CO)C(=O)N[C@@H](CO)C(=O)N[C@H](C(=O)N[C@@H](CC(N)=O)C(=O)N[C@H](C(=O)NCC(=O)N1CCC[C@H]1C(=O)N[C@@H](CC(N)=O)C(=O)N[C@H](C(=O)N[C@@H](Cc1ccc(O)cc1)C(N)=O)[C@@H](C)O)C(C)C)[C@@H](C)O, also called compound 94)
0.405 nM	41.6	16.8 nM	K([γGlu-C20 diacid])CNTATCATQRLARFLRHSSPNFGAIPSSTNVGSNTY-NH2 (disulfide 2-7; N-terminus assumed; SMILES CC[C@H](C)[C@H](NC(=O)[C@H](C)NC(=O)CNC(=O)[C@H](Cc1ccccc1)NC(=O)[C@H](CC(N)=O)NC(=O)[C@@H]1CCCN1C(=O)[C@H](CO)NC(=O)[C@H](CO)NC(=O)[C@H](Cc1c[nH]cn1)NC(=O)[C@H](CCCNC(=N)N)NC(=O)[C@H](CC(C)C)NC(=O)[C@H](Cc1ccccc1)NC(=O)[C@H](CCCNC(=N)N)NC(=O)[C@H](C)NC(=O)[C@H](CC(C)C)NC(=O)[C@H](CCCNC(=N)N)NC(=O)[C@H](CCC(N)=O)NC(=O)[C@@H](NC(=O)[C@H](C)NC(=O)[C@@H]1CSSC[C@H](NC(=O)[C@@H](N)CCCCNC(=O)CC[C@H](NC(=O)CCCCCCCCCCCCCCCCCCC(=O)O)C(=O)O)C(=O)N[C@@H](CC(N)=O)C(=O)N[C@@H]([C@@H](C)O)C(=O)N[C@@H](C)C(=O)N[C@@H]([C@@H](C)O)C(=O)N1)[C@@H](C)O)C(=O)N1CCC[C@H]1C(=O)N[C@@H](CO)C(=O)N[C@@H](CO)C(=O)N[C@H](C(=O)N[C@@H](CC(N)=O)C(=O)N[C@H](C(=O)NCC(=O)N[C@@H](CO)C(=O)N[C@@H](CC(N)=O)C(=O)N[C@H](C(=O)N[C@@H](Cc1ccc(O)cc1)C(N)=O)[C@@H](C)O)C(C)C)[C@@H](C)O, also called compound 83) [N^ε1-[(4S)-4-carboxy-4-(19-carboxynonadecanoylamino)butanoyl]-[Arg14,Arg17,Pro21,Pro27]-h-amylin]
